Earlier results as cited in patent publication US20250101104A1, “BISPECIFIC MOLECULE WITH TUNABLE AFFINITY TO A TARGETED ANTIGEN” (MABSWITCH INC., priority 2022, published 2025).

Test system: AML cell lines and primary AML blasts
Conditions: in vitro and in NOD SCID mice injected with human AML

B1: MGDO06: CD3×CD123 DART (Macrogenics) (antibody, chains of the INN, looked up, V domains shown)
VH: EVQLVQSGAELKKPGASVKVSCKASGYTFTDYYMKWVRQAPGQGLEWIGDIIPSNGATFYNQKFKGRVTITVDKSTSTAYMELSSLRSEDTAVYYCARSHLLRASWFAYWGQGTLVTVSS
VL: DFVMTQSPDSLAVSLGERVTMSCKSSQSLLNSGNQKNYLTWYQQKPGQPPKLLIYWASTRESGVPDRFSGSGSGTDFTLTISSLQAEDVAVYYCQNDYSYPYTFGQGTKLEIK
VH2: EVQLVESGGGLVQPGGSLRLSCAASGFTFSTYAMNWVRQAPGKGLEWVGRIRSKYNNYATYYADSVKDRFTISRDDSKNSLYLQMNSLKTEDTAVYYCVRHGNFGNSYVSWFAYWGQGTLVTVSS
VL2: QAVVTQEPSLTVSPGGTVTLTCRSSTGAVTTSNYANWVQQKPGQAPRGLIGGTNKRAPWTPARFSGSLLGGKAALTITGAQAEDEADYYCALWYSNLWVFGGGTKLTVL
modifications: DART
For B1, the “killing of AML cell lines and primary AML blasts” value is given as “dose-dependent killing”.
